Publication PMC9482650, “Quantitative fragmentomics allow affinity mapping of interactomes” (Nature Communications, 2022)

What was measured:
Assay in all cases: holdup assay
Parameters in all cases: key: below the threshold = too weak to quantify, mostly under pKd 3.1 to 4
Settings in all cases: plain residues with an end cap or a label only (N-terminal biotin on a linker: ado-ado)
PDZD2_2, O15018 = molecular target: T1, PDZD2_2, O15018
T1 sequence (O15018 329-429, limits assumed, looked up): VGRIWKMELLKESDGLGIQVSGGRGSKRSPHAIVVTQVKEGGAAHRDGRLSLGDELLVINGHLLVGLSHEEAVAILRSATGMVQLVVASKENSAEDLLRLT

DFNB31_2, Q9P202 = molecular target: T2, DFNB31_2, Q9P202
T2 sequence (Q9P202 274-371, limits assumed, looked up): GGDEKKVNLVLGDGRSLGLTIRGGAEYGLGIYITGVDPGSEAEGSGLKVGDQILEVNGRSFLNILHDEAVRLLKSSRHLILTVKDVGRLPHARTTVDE

MAGI2_2, Q86UL8 = molecular target: MAGI2_2, Q86UL8
Chain of MAGI2_2, Q86UL8 (Q86UL8 410-522): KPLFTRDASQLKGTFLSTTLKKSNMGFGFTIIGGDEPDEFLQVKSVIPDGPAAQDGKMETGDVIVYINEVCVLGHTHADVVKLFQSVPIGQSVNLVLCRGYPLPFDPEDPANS

DLG4_3, P78352 = molecular target: DLG4_3, P78352
Chain of DLG4_3, P78352 (P78352 306-403): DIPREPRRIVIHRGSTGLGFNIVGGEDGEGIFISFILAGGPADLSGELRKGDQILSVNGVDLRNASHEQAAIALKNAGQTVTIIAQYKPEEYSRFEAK

TX1BP3, O14907 = molecular target: T3, TX1BP3, O14907
T3 sequence (O14907 10-122, limits assumed, looked up): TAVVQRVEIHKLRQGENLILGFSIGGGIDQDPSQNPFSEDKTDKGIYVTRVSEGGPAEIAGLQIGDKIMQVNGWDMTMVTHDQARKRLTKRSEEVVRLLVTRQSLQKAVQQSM

LAP2, Q96RT1 = molecular target: LAP2, Q96RT1
Chain of LAP2, Q96RT1 (Q96RT1 other isoform, or with tags, fused parts or gaps): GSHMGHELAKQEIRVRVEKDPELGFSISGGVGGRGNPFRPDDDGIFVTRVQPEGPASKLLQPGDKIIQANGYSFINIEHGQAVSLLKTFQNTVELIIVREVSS

Inadl_1, Q8NI35 = molecular target: Inadl_1, Q8NI35
Chain of Inadl_1, Q8NI35 (Q8NI35 113-229): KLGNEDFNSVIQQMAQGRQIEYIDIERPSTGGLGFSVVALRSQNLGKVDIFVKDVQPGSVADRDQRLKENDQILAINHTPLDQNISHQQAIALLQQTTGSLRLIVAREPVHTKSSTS

Inadl_4, Q8NI35 = molecular target: Inadl_4, Q8NI35
Chain of Inadl_4, Q8NI35 (Q8NI35 547-651): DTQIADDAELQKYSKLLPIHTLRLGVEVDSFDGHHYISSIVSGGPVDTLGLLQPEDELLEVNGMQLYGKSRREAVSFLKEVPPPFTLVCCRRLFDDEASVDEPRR

IL16_3, Q14005 = molecular target: IL16_3, Q14005
Chain of IL16_3, Q14005 (Q14005 1107-1207): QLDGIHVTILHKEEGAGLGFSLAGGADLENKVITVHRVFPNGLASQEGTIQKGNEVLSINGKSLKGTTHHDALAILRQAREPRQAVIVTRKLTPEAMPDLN

LIN7C, Q9NUP9 = molecular target: T4, LIN7C, Q9NUP9
T4 sequence (Q9NUP9 88-185, limits assumed, looked up): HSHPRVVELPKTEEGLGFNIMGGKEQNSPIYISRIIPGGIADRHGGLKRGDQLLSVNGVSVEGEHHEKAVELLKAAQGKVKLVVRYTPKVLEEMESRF

HTRA4, P83105 = molecular target: T5, HTRA4, P83105
T5 sequence (P83105 378-476, limits assumed, looked up): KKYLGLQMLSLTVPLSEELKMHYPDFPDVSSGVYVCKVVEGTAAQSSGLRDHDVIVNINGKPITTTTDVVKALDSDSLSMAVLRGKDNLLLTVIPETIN

Inadl_5, Q8NI35 = molecular target: Inadl_5, Q8NI35
Chain of Inadl_5, Q8NI35 (Q8NI35 673-780): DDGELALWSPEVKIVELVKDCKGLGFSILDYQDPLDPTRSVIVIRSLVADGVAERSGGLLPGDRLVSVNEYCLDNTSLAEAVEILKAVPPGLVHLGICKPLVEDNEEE

PICK1, Q9NRD5 = molecular target: PICK1, Q9NRD5
Chain of PICK1, Q9NRD5 (Q9NRD5 17-115): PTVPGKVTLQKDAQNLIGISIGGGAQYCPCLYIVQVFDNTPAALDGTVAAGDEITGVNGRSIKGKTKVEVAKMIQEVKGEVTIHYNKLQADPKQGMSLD

FRMPD2_3, Q68DX3 = molecular target: FRMPD2_3, Q68DX3
Chain of FRMPD2_3, Q68DX3 (Q68DX3 1073-1166): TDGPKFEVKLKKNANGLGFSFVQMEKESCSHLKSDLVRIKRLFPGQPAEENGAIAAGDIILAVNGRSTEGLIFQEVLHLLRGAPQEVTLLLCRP

Inadl_6, Q8NI35 = molecular target: Inadl_6, Q8NI35
Chain of Inadl_6, Q8NI35 (Q8NI35 1058-1167): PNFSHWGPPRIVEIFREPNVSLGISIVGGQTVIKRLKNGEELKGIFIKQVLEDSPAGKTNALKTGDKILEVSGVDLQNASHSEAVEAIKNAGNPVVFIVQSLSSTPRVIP

MAST1, Q9Y2H9 = molecular target: MAST1, Q9Y2H9
Chain of MAST1, Q9Y2H9 (Q9Y2H9 962-1065): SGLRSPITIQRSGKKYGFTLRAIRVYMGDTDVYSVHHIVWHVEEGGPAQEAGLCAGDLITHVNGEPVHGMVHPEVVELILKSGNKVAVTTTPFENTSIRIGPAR

MAGI2_5, Q86UL8 = molecular target: MAGI2_5, Q86UL8
Chain of MAGI2_5, Q86UL8 (Q86UL8 915-1017): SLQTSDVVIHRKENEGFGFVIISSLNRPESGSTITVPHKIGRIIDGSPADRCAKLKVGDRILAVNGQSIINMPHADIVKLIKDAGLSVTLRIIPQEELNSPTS

PTPN13_1, Q12923 = molecular target: T6, PTPN13_1, Q12923
T6 sequence (Q12923 1088-1188, limits assumed, looked up): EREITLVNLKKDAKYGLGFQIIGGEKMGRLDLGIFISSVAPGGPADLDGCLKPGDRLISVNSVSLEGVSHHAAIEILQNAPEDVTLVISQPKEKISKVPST

GRIP2_4, Q9C0E4 = molecular target: GRIP2_4, Q9C0E4
Chain of GRIP2_4, Q9C0E4 (Q9C0E4 446-548): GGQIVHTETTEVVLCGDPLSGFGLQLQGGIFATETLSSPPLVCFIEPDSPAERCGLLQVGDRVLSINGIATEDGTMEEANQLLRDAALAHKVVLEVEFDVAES

NOS1, P29475 = molecular target: NOS1, P29475
Chain of NOS1, P29475 (P29475 9-101): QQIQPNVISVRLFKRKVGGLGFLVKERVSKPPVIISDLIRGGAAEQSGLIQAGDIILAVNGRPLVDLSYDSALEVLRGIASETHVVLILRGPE

DLG3_2, Q92796 = molecular target: T7, DLG3_2, Q92796
T7 sequence (Q92796 221-321, limits assumed, looked up): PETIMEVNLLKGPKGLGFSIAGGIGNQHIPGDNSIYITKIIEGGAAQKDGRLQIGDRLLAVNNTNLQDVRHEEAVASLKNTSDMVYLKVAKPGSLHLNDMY

HTRA2, O43464 = molecular target: HTRA2, O43464
Chain of HTRA2, O43464 (O43464 355-458): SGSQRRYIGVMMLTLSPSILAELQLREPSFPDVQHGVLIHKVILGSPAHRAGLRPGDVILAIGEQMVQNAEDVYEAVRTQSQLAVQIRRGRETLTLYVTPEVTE

RADIL, Q96JH8 = molecular target: T8, RADIL, Q96JH8
T8 sequence (Q96JH8 971-1071, limits assumed, looked up): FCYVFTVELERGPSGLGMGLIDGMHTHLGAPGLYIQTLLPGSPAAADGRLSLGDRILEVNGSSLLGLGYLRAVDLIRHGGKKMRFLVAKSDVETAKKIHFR

DLG3_3, Q92796 = molecular target: T9, DLG3_3, Q92796
T9 sequence (Q92796 374-475, limits assumed, looked up): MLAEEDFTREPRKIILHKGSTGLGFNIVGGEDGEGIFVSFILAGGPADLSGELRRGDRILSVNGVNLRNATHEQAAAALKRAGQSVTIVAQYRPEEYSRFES

SCRIB_3, Q14160 = molecular target: SCRIB_3, Q14160
Chain of SCRIB_3, Q14160 (Q14160 999-1103): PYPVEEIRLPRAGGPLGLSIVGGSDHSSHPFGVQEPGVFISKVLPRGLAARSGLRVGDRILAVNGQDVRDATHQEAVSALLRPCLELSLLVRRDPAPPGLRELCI

DFNB31_3, Q9P202 = molecular target: T10, DFNB31_3, Q9P202
T10 sequence (Q9P202 811-907, limits assumed, looked up): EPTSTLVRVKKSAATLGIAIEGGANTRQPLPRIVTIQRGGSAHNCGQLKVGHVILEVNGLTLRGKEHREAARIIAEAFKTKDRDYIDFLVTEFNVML

MPP7, Q5T2T1 = molecular target: T11, MPP7, Q5T2T1
T11 sequence (Q5T2T1 134-230, limits assumed, looked up): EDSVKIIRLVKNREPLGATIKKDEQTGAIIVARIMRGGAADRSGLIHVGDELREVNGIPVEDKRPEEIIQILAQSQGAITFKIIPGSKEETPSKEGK

## GDGLDDEIAV [NOS1AP, O75052]
PDZD2_2, O15018
  pKd: 3.55
DFNB31_2, Q9P202
  pKd: below the threshold
MAGI2_2, Q86UL8
  pKd: below the threshold
DLG4_3, P78352
  pKd: below the threshold
TX1BP3, O14907
  pKd: below the threshold
LAP2, Q96RT1
  pKd: 3.67
Inadl_1, Q8NI35
  pKd: below the threshold
Inadl_4, Q8NI35
  pKd: below the threshold
IL16_3, Q14005
  pKd: below the threshold
LIN7C, Q9NUP9
  pKd: below the threshold
HTRA4, P83105
  pKd: 3.9
Inadl_5, Q8NI35
  pKd: below the threshold
PICK1, Q9NRD5
  pKd: 4.38
FRMPD2_3, Q68DX3
  pKd: 3.82
Inadl_6, Q8NI35
  pKd: below the threshold
MAST1, Q9Y2H9
  pKd: 3.72
MAGI2_5, Q86UL8
  pKd: below the threshold
PTPN13_1, Q12923
  pKd: below the threshold
GRIP2_4, Q9C0E4
  pKd: below the threshold
NOS1, P29475
  pKd: 3.8
DLG3_2, Q92796
  pKd: 4.01
HTRA2, O43464
  pKd: below the threshold
RADIL, Q96JH8
  pKd: below the threshold
DLG3_3, Q92796
  pKd: below the threshold
SCRIB_3, Q14160
  pKd: below the threshold
DFNB31_3, Q9P202
  pKd: below the threshold
MPP7, Q5T2T1
  pKd: below the threshold

## YPKQMPLSQV [FZD8, Q9H461]
PDZD2_2, O15018
  pKd: 4.23
DFNB31_2, Q9P202
  pKd: below the threshold
MAGI2_2, Q86UL8
  pKd: 4.29
DLG4_3, P78352
  pKd: below the threshold
TX1BP3, O14907
  pKd: below the threshold
LAP2, Q96RT1
  pKd: below the threshold
Inadl_1, Q8NI35
  pKd: below the threshold
Inadl_4, Q8NI35
  pKd: below the threshold
IL16_3, Q14005
  pKd: below the threshold
LIN7C, Q9NUP9
  pKd: below the threshold
HTRA4, P83105
  pKd: 3.94
Inadl_5, Q8NI35
  pKd: below the threshold
PICK1, Q9NRD5
  pKd: below the threshold
FRMPD2_3, Q68DX3
  pKd: below the threshold
Inadl_6, Q8NI35
  pKd: below the threshold
MAST1, Q9Y2H9
  pKd: 4.09
MAGI2_5, Q86UL8
  pKd: below the threshold
PTPN13_1, Q12923
  pKd: below the threshold
GRIP2_4, Q9C0E4
  pKd: below the threshold
NOS1, P29475
  pKd: below the threshold
DLG3_2, Q92796
  pKd: below the threshold
HTRA2, O43464
  pKd: below the threshold
RADIL, Q96JH8
  pKd: 3.7
DLG3_3, Q92796
  pKd: below the threshold
SCRIB_3, Q14160
  pKd: below the threshold
DFNB31_3, Q9P202
  pKd: below the threshold
MPP7, Q5T2T1
  pKd: below the threshold

## AEDEEIQTKM [UNC93A, Q86WB7]
PDZD2_2, O15018
  pKd: below the threshold
DFNB31_2, Q9P202
  pKd: below the threshold
MAGI2_2, Q86UL8
  pKd: below the threshold
DLG4_3, P78352
  pKd: below the threshold
TX1BP3, O14907
  pKd: below the threshold
LAP2, Q96RT1
  pKd: below the threshold
Inadl_1, Q8NI35
  pKd: below the threshold
Inadl_4, Q8NI35
  pKd: below the threshold
IL16_3, Q14005
  pKd: below the threshold
LIN7C, Q9NUP9
  pKd: below the threshold
HTRA4, P83105
  pKd: 3.8
Inadl_5, Q8NI35
  pKd: below the threshold
PICK1, Q9NRD5
  pKd: 4.11
FRMPD2_3, Q68DX3
  pKd: below the threshold
Inadl_6, Q8NI35
  pKd: below the threshold
MAST1, Q9Y2H9
  pKd: 4.72
MAGI2_5, Q86UL8
  pKd: below the threshold
PTPN13_1, Q12923
  pKd: below the threshold
GRIP2_4, Q9C0E4
  pKd: below the threshold
NOS1, P29475
  pKd: below the threshold
DLG3_2, Q92796
  pKd: below the threshold
HTRA2, O43464
  pKd: below the threshold
RADIL, Q96JH8
  pKd: below the threshold
DLG3_3, Q92796
  pKd: below the threshold
SCRIB_3, Q14160
  pKd: below the threshold
DFNB31_3, Q9P202
  pKd: 3.88
MPP7, Q5T2T1
  pKd: below the threshold

## QNRIITKTDV [SMCHD1, A6NHR9]
PDZD2_2, O15018
  pKd: 4.4
DFNB31_2, Q9P202
  pKd: below the threshold
MAGI2_2, Q86UL8
  pKd: 4.08
DLG4_3, P78352
  pKd: below the threshold
TX1BP3, O14907
  pKd: 3.51
LAP2, Q96RT1
  pKd: below the threshold
Inadl_1, Q8NI35
  pKd: below the threshold
Inadl_4, Q8NI35
  pKd: below the threshold
IL16_3, Q14005
  pKd: below the threshold
LIN7C, Q9NUP9
  pKd: 3.94
HTRA4, P83105
  pKd: below the threshold
Inadl_5, Q8NI35
  pKd: below the threshold
PICK1, Q9NRD5
  pKd: below the threshold
FRMPD2_3, Q68DX3
  pKd: below the threshold
Inadl_6, Q8NI35
  pKd: below the threshold
MAST1, Q9Y2H9
  pKd: below the threshold
MAGI2_5, Q86UL8
  pKd: below the threshold
PTPN13_1, Q12923
  pKd: below the threshold
GRIP2_4, Q9C0E4
  pKd: below the threshold
NOS1, P29475
  pKd: below the threshold
DLG3_2, Q92796
  pKd: 4.08
HTRA2, O43464
  pKd: below the threshold
RADIL, Q96JH8
  pKd: 3.64
DLG3_3, Q92796
  pKd: below the threshold
SCRIB_3, Q14160
  pKd: 3.81
DFNB31_3, Q9P202
  pKd: below the threshold
MPP7, Q5T2T1
  pKd: below the threshold
